Results published in paper doi:10.1101/2022.11.03.515015.
“And” between values parts separate entries of the source, which are not always exact repeats. Equal entries are not always repeated.

Assays:
Conditions in all cases: remark: other sources report otherwise
[1] = target: full-length human UBR5 (construct for single-particle analysis: 10xHis, 3C site, UBR5, double strep tag) (human) (UniProt O95071); assay: mass photometry
[2] = target: full-length human UBR5 (construct for single-particle analysis: 10xHis, 3C site, UBR5, double strep tag) (human) (UniProt O95071); assay: mass photometry; remark: listed apart in the source
[3] = target: full-length human UBR5 (construct for single-particle analysis: 10xHis, 3C site, UBR5, double strep tag) (human) (UniProt O95071); assay: cryo-EM structure

## full-length human UBR5 (construct for single-particle analysis: 10xHis, 3C site, UBR5, double strep tag), O95071 1-2799
[1]
  stoichiometry N: 2
[2]
  stoichiometry N: 4
[3]
  stoichiometry N: 4 and 2
